Laboratory results from patent publication US9951128B2, “Caninized anti-NGF antibodies and methods thereof” (ZOETIS SERVICES LLC, priority 2012, dated 2018).
Read-outs that look alike come from different tables or passages of the source.

Legend:
[1] = test system: NGF binding to receptor trkA; assay: Functional in vitro assay: inhibition of NGF binding to TrkA (pre-incubated mAb+NGF); assay type: biochemical
Experimental: FIGS. 12A and B is a graphical representation of affinity data of caninized mAb (left). (Right) trkA inhibition data with pre-incubated mAb+NGF. (Bottom)
(§1) Affinities of each caninized anti-NGF antibody to canine NGF were measured using SPR (Surface Plasmon Resonance). In addition, a functional in vitro assay was developed to measure inhibition constants for the mAbs ability to inhibit binding of NGF to TrkA. […] Some affinity was lost, however, upon caninization to mAb CAN-N2G9-VH, CAN-E3M. Due to this loss of affinity, the caninized mAb was affinity matured (see Example 5 for details) to regain potency. Included in FIGS. 12 and 13 are the results of the affinity matured products, SSM57 (SEQ ID NO. 27 “CAN-SSM57-VH”, SEQ ID NO. 26 “CAN-SSME3M-VL”), SSM58 (SEQ ID NO. 28 CAN-SSM58-VH, SEQ ID NO. 26 “CAN-SSME3M-VL”), and SSM66 (SEQ ID NO.29 CAN-SSM66, SEQ ID NO. 26 CAN-SSME3M-VL) on each SPR assay.

canine NGF = assay: SPR (Biacore T100) binding of anti-NGF mAbs to canine NGF
Description: As used herein, the term “affinity” refers to the strength of the binding of a single antigen-combining site with an antigenic determinant. Affinity depends on the closeness of stereochemical fit between antibody or antigen binding protein combining sites and antigen determinants, on the size of the area of contact between them, on the distribution of charged and hydrophobic groups, etc. Antibody affinity can be measured by equilibrium analysis or by the Surface Plasmon Resonance—“SPR” method (for example BIACORE™. The SPR method relies on the phenomenon of surface plasmon resonance (SPR), which occurs when surface plasmon waves are excited at a metal/liquid interface. Light is directed at, and reflected from, the side of the surface not in contact with sample, and SPR causes a reduction in the reflected light intensity at a specific combination of angle and wavelength. Bimolecular binding events cause changes in the refractive index at the surface layer, which are detected as changes in the SPR signal.
The generation of anti-drug antibodies (ADAs) can be associated with loss of efficacy for any biotherapeutic protein including monoclonal antibodies. Comprehensive evaluation of the literature has shown that speciation of monoclonal antibodies can reduce the propensity for mAbs to be immunogenic although examples of immunogenic fully human mAbs and non-immunogenic chimeric mAbs can be found. To help mitigate risks associated with ADA formation for the mouse anti-NGF, RN911, monoclonal antibody provided herein, a caninization strategy was employed. This caninization strategy is based on identifying the most appropriate canine germline antibody sequence for CDR grafting (FIG. 3). Following extensive analysis of all available canine germline sequences for both the heavy and light chains, germline candidates were selected on their homology to RN911, and the CDRs from RN911 were used to replace native canine CDRs. The objective was to retain high affinity and cell-based activity using fully canine frameworks to minimize the potential of immunogenicity in vivo. Caninized mAbs were optimized for mammalian expression, expressed and characterized for their ability to bind NGF via SPR. […] Only mAbs that retained both reliable expression levels and the ability to bind NGF following caninization were advanced for further characterization.
as §1
SPR on the supernatants were performed as an initial screen, good binders were purified, and pure mAb was again run via SPR to measure binding to canine NGF (TABLE 5). Constructs LTM109 and LTM135 were chosen to progress based on binding affinities.
Various KD's correspond to different sensors, surface density varies slightly.
Mutated antibodies were expressed in HEK293 cells and evaluated for binding affinities to canine NGF (results below; expression results in Tables 7-9).

[2] = test system: beagle (LPS-induced) synovitis pain model; assay: Dog LPS-induced synovitis pain model, lameness by visual analogue scale; assay type: in vivo; conditions: synovitis induced 7 and 28 days post-dose
Experimental: PK/PD data were generated with RN911 in the target species in a synovitis efficacy study. In the synovitis pain model, transient inflammation of the synovial membrane in a single stifle is induced via intra-articular injection of bacterial lipopolysaccharide (LPS). Quantifiable lameness occurs within 2h of synovitis induction, peaks at 3-4h, is waning by 6h and is fully resolved after 24h. From an IACUC perspective, it is acceptable to induce synovitis on two separate occasions (i.e., once in each stifle), provided the lameness associated with the first synovitis induction has fully resolved. Therefore we designed a study in which synovitis was induced in the same beagle 3 days and 7 days after IV treatment (RN911 or PBS vehicle). After each synovitis induction, lameness was quantified using a visual analogue scale (VAS).
At this time, the free RN911 serum concentrations averaged 24400±3900 ng/mL (170±27 nM; FIG. 2).
Caninized mAb (CAN-SSME3M-VL, CAN-SSM57-HC) was tested in dog synovitis model at 5 mg/kg IV and 5 mg/kg SC. Results of study are shown in FIG. 14, inducing synovitis at 7 days and 28 days post-dose.

[3] = test system: rat MIA model of osteoarthritis; assay: Rat MIA osteoarthritis model, weight bearing test; assay type: in vivo, Rat Ola Wistar; conditions: dosed on study day 7 and study day 14
Experimental: Osteoarthritis (OA) is a degenerative joint disease characterized by joint pain and a progressive loss of articular cartilage. Intra-articular injection of MIA induces loss of articular cartilage with progression of subchondral bone lesions that mimic those of OA. This model offers a rapid and minimally invasive method to reproduce OA-like lesions in a rodent species.
Pain was assessed using weight bearing test for sustained pain and joint compression (Randall Selitto) test for mechanical hyperalgesia. See FIG. 17 for a schematic of the rat MIA procedure.
This training regime was required as it was anticipated that the level of variability within the experiment is relatively high. […]
Weight bearing deficits were measured in all rats on study day −1, this measurement served as a baseline. Weight bearing was then recorded on study days 9, 16, 21 and 28. […]
The weight bearing of each leg was measured separately by weight bearing apparatus (IITC, Series 8, Model 600®). This test quantifies the spontaneous postural changes reflecting spontaneous pain by independently measuring, on two separate sensors, the weight that the animal applies on each hind paw.
Results were calculated and represented as the percentage of weight that the animal leaned on the injected right leg or intact left leg from the total amount of leaned weight on the two hind legs. […]

[4] = canine NGF, 1:1 Binding fit, Table 9

canine NGF, sequence (as listed by the source): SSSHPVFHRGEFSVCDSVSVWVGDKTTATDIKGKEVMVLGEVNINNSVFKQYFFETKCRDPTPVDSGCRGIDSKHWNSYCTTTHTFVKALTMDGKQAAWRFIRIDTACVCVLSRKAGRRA
NGF binding to receptor trkA, sequence (as listed by the source): as above

B1: CanE3M 65112: caninized RN911 mAb: CAN-N2G9-VH (SEQ ID NO. 17), CAN-E3M-VL (SEQ ID NO. 16), CAN-65E-HC, CAN-KAPPA-LC (antibody, V domains shown)
VH: EVQLVESGGDLARPGGSLKLSCVVSGFSLIGYDINWVRQAPGKGLQWVTMIWGDGTTDYNSALKSRFTVSRDNAMNTVYLQMNSLRVEDTAVYYCARGGYYYGTSYYFDYWGQGTLVTVSS
VL: DIVMTQTPLSLSVSPGETASISCRASQDISNHLNWFRQKPGQSPQRLIYYISRFHSGVPDRFSGSGSGTDFTLRISRVEADDTGVYYCQQSKTLPYTFGAGTKLEIK
modifications: canine constant regions without entries; canine
- Inhibition by mAbs of NGF binding to receptor trkA [1]: potent inhibition
- Kd (canine NGF; Dog NGF, Biacore T100, purified mAb, run 11/8 (different sensors), read-out: KD (M) 11/8): 3.35e-09 M
- Kd (canine NGF; Dog NGF, Biacore T100, purified mAb, run 11/22 (different sensors), read-out: KD (M) 11/22): 1.46e-09 M
- Kd (canine NGF; Dog NGF, Biacore T100, purified mAb, run 11/24 (different sensors), read-out: KD (M) 11/24): 2.35e-09 M
- Kd (canine NGF; Dog NGF, Biacore T100, purified mAb, run 11/29 (different sensors), read-out: KD (M) 11/29): 3.51e-09 M
- Binding of mAbs to NGF (FIGS. 12 and 13) (canine NGF; SPR): high affinity binding
- ka (canine NGF; [4]): 17200 M⁻¹ s⁻¹
- kd (canine NGF; [4]): 8.11e-05 s⁻¹
- Kd (canine NGF; canine NGF, 1:1 Binding fit, Table 9, read-out: KD): 4.7e-09 M
- Binding to canine NGF after caninization / framework substitution (canine NGF; expressed in HEK 293): retained NGF binding

B2: SSM66: affinity matured caninized mAb: CAN-SSM66-VH (SEQ ID NO. 29), CAN-SSME3M-VL (SEQ ID NO. 26) (antibody, V domains shown)
VH: EVQLVESGGDLARPGGSLKLSCVVSGFSLIEYDINWVRQAPGKGLQWVTMIWGTGTTDYNSALKSRFTVSRDNAMNTVYLQMNSLRVEDTAVYYCARGGYWYATSYYFDYWGQGTLVTVSS
VL: DIVMTQTPLSLSVSPGETASISCRASQSISNNLNWFRQKPGQSPQRLIYYISSFHSGVPDRFSGSGSGTDFTLRISRVEADDTGVYYCQQSHTLPYTFGAGTKLEIK
modifications: canine
- Binding affinities to canine NGF among SSM mutated antibodies (canine NGF): highest affinities

B3: SSM58: affinity matured caninized mAb: CAN-SSM58-VH (SEQ ID NO. 28), CAN-SSME3M-VL (SEQ ID NO. 26) (antibody, V domains shown)
VH: EVQLVESGGDLARPGGSLKLSCVVSGFSLIEYDINWVRQAPGKGLQWVTMIWGDGTTDYNSALKSRFTVSRDNAMNTVYLQMNSLRVEDTAVYYCARGGYWYATSYYFDYWGQGTLVTVSS
VL: DIVMTQTPLSLSVSPGETASISCRASQSISNNLNWFRQKPGQSPQRLIYYISSFHSGVPDRFSGSGSGTDFTLRISRVEADDTGVYYCQQSHTLPYTFGAGTKLEIK
modifications: canine
- Binding affinities to canine NGF among SSM mutated antibodies (canine NGF): highest affinities

B4: SSM57: affinity matured caninized mAb: CAN-SSM57-VH (SEQ ID NO. 27), CAN-SSME3M-VL (SEQ ID NO. 26) (antibody, V domains shown)
VH: EVQLVESGGDLARPGGSLKLSCVVSGFSLIQYDINWVRQAPGKGLQWVTMIWGDGTTDYNSALKSRFTVSRDNAMNTVYLQMNSLRVEDTAVYYCARGGYWYATSYYFDYWGQGTLVTVSS
VL: DIVMTQTPLSLSVSPGETASISCRASQSISNNLNWFRQKPGQSPQRLIYYISSFHSGVPDRFSGSGSGTDFTLRISRVEADDTGVYYCQQSHTLPYTFGAGTKLEIK
modifications: canine
- Efficacy in dog synovitis model ([2]; 5 mg/kg IV): showed efficacy
- Efficacy in dog synovitis model ([2]; 5 mg/kg SC): showed efficacy
- Analgesic effect in the rat MIA model of osteoarthritis [3]: demonstrated
- Binding affinities to canine NGF among SSM mutated antibodies (canine NGF): highest affinities
